Measurements taken from patent publication US20130143227A1 (University of Texas, published 2013).

B1: recombinant human RSPO2 (ligand, UniProt Q6UXX9 22-243, looked up)
chain: QGNRWRRSKRASYVSNPICKGCLSCSKDNGCSRCQQKLFFFLRREGMRQYGECLHSCPSGYYGHRAPDMNRCARCRIENCDSCFSKDFCTKCKVGFYLHRGRCFDECPDGFAPLEETMECVEGCEVGHWSEWGTCSRNNRTCGFKWGLETRTRQIVKKPVKDTILCPTIAESRRCKMTMRHCPGGKRTPKAKEKRNKKKKRKLIERAQEQHSVFLATDRANQ
notes: Bought from R&D Systems; also called R-spondin 2
B2: recombinant human RSPO3 (ligand)
chain: QNASRGRRQRRMHPNVSQGCQGGCATCSDYNGCLSCKPRLFFALERIGMKQIGVCLSSCPSGYYGTRYPDINKCTKCKADCDTCFNKNFCTKCKSGFYLHLGKCLDNCPEGLEANNHTMECVSIVHCEVSEWNPWSPCTKKGKTCGFKRGTETRVREIIQHPSAKGNLCPPTNETRKCTVQRKKCQKGERGKKGRERKRKKPNKGESKEAIPDSKSLESSKEIPEQRENKQQQKKRKVQDKQKSVSVSTVH
notes: Bought from R&D Systems; also called R-spondin 3
B3: recombinant human RSPO4 (ligand)
chain: LNRRKKQVGTGLGGNCTGCIICSEENGCSTCQQRLFLFIRREGIRQYGKCLHDCPPGYFGIRGQEVNRCKKCGATCESCFSQDFCIRCKRQFYLYKGKCLPTCPPGTLAHQNTRECQGECELGPWGGWSPCTHNGKTCGSAWGLESRVREAGRAGHEEAATCQVLSESRKCPIQRPCPGERSPGQKKGRKDRRPRKDRKLDRRLDVRPRQPGLQP
notes: Bought from R&D Systems; also called R-spondin 4
B4: recombinant human RSPO1 (ligand, UniProt Q2MKA7 21-263, looked up)
chain: SRGIKGKRQRRISAEGSQACAKGCELCSEVNGCLKCSPKLFILLERNDIRQVGVCLPSCPPGYFDARNPDMNKCIKCKIEHCEACFSHNFCTKCKEGLYLHKGRCYPACPEGSSAANGTMECSSPAQCEMSEWSPWGPCSKKQQLCGFRRGSEERTRRVLHAPVGDHAACSDTKETRRCTVRRVPCPEGQKRRKGGQGRRENANRNLARKESKEAGAGSRRRKGQQQQQQQGTVGPLTSAGPA
notes: Bought from R&D Systems; also called R-spondin 1

Key:
Test in all cases: cell-based or functional assay
[1] = target: T1, FLAG-LGR6 (human LGR6, predicted mature form aa25-967, N-terminal FLAG tag), expressed on HEK293 cells (human, UniProt Q9HBX8 26-967)
T1 sequence: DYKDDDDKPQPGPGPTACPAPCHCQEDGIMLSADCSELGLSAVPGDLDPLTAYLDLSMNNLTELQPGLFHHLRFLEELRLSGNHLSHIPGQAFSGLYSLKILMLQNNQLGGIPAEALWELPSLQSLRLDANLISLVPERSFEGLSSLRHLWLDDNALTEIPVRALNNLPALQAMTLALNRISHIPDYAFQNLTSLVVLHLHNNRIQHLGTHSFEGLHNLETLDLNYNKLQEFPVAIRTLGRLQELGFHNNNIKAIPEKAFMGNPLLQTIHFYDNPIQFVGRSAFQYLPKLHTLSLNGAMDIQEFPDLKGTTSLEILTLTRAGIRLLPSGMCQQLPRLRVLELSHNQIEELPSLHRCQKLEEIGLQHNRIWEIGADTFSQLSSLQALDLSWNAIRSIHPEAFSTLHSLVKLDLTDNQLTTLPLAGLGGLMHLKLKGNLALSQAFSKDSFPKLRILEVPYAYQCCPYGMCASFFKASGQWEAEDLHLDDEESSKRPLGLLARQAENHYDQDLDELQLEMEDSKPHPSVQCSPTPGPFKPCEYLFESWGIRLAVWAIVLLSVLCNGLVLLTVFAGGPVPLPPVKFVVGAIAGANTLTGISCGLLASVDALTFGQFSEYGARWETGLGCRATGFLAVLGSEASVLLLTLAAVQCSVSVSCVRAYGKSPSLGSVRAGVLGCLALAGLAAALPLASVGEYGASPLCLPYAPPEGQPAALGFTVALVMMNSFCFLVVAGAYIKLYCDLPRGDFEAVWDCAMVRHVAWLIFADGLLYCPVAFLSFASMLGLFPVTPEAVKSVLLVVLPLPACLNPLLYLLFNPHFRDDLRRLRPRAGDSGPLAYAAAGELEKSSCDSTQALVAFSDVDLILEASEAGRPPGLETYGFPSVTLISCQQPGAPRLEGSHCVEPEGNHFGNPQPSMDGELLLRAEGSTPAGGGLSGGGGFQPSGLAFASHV

[2] = target: T2, Myc-LGR4 (mouse LGR4, predicted mature form aa23-951, N-terminal Myc tag), expressed on HEK293 cells (mouse, UniProt A2ARI4 23-951)
T2 sequence: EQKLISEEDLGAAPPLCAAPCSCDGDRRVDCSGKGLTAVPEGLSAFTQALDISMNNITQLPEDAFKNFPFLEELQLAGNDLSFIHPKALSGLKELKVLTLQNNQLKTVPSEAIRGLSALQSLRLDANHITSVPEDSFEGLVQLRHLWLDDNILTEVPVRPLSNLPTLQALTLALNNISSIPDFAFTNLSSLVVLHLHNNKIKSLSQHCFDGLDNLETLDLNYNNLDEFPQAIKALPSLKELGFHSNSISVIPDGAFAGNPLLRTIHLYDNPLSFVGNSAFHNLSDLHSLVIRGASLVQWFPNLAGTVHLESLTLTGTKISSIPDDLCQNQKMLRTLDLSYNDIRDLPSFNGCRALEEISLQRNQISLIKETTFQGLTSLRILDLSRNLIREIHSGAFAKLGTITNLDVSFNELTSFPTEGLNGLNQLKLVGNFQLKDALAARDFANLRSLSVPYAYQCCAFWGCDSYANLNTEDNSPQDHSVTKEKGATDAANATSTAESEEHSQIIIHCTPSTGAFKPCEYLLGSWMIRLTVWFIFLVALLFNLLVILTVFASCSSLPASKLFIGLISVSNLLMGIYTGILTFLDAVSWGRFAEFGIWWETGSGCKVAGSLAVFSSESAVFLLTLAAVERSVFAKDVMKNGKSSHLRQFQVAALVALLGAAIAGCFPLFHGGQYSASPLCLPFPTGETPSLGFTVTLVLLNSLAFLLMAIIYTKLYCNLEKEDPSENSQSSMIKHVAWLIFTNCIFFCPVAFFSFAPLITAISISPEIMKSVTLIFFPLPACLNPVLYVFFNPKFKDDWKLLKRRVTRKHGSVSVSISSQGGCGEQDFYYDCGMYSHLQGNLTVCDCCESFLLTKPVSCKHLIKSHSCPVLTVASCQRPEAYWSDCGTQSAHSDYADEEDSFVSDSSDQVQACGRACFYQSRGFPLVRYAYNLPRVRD

[3] = target: T3, Myc-LGR5 (human LGR5, predicted mature form aa21-907, N-terminal Myc tag), expressed on HEK293 cells (human, UniProt O75473 22-907)
T3 sequence: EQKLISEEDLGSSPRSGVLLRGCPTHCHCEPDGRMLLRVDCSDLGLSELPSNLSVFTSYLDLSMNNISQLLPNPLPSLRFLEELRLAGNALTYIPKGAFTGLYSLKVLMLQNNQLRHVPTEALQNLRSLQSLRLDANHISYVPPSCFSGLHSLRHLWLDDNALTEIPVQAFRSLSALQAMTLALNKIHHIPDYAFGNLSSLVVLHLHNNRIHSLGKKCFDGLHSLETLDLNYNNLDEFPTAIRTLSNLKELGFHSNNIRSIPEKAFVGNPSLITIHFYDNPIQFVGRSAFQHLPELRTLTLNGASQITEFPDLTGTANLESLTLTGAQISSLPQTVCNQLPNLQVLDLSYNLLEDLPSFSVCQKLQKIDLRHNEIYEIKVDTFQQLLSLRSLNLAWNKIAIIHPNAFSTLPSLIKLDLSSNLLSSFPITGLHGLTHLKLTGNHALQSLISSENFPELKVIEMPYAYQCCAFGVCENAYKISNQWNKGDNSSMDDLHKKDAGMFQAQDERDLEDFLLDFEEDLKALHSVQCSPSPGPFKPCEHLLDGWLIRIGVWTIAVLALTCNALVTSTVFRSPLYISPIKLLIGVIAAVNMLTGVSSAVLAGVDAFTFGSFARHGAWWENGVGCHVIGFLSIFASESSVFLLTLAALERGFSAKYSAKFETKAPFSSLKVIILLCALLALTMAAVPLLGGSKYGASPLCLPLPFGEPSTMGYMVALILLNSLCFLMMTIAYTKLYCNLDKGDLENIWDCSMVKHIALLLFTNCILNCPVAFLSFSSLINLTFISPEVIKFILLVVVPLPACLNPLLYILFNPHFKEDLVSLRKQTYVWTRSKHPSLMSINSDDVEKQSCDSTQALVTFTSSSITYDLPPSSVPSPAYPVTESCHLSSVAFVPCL

| Binder | maximum effect (Emax, fraction of vector control), β-catenin reporter [1] | potency (EC50, nM), β-catenin reporter (Super 8x TOPFlash) with Wnt3a CM [1] [nM] | maximum effect (Emax, fraction of vector control), β-catenin reporter [2] | potency (EC50, nM), β-catenin reporter (Super 8x TOPFlash) with Wnt3a CM [2] [nM] | maximum effect (Emax, fraction of vector control), β-catenin reporter [3] | potency (EC50, nM), β-catenin reporter (Super 8x TOPFlash) with Wnt3a CM [3] [nM] |
| --- | --- | --- | --- | --- | --- | --- |
| B1 | 0.5 fraction of vector control | 0.01 | 0.9 fraction of vector control | 0.0003 | 1 fraction of vector control | 0.001 |
| B2 | 0.5 fraction of vector control | 0.05 | 0.9 fraction of vector control | 0.02 | 1.1 fraction of vector control | 0.01 |
| B3 | – | – | – | 0.09 | – | 0.4 |
| B4 | – | 0.03 | – | 0.02 | – | 0.008 |
